Reference: publication PMC12641570, “Surface‐modified protein crowders influence mutant huntingtin exon 1 aggregation via crowding effects, crowder association, and crowder solution stability” (Protein Science : A Publication of the Protein Society, 2025)

Biological target: T1, bovine serum albumin cationized by reaction with ethylenediamine, net surface charge +78e (BSA +78e) (bovine, UniProt P02769 25-607, reacted with ethylenediamine; net surface charge +78e (±3e))
T1 construct: bovine serum albumin (BSA), 66 kDa protein; Chemically surface-modified; DLS radius is 16 nm, from which the authors infer oligomers; also called positive BSA (+78e); cationized BSA; source: BSA modified by reaction with ethylenediamine (published procedure); chemicals bought: Sigma‐Aldrich unless mentioned otherwise
Assay: MST; NanoTemper Monolith; about 10 μM mHttex1‐VC (target, mCherry fluorescence read) with different concentrations of BSA (ligand); within 1 h after cleaving MBP; apparent
Conditions: both partners purified

B1: mutant huntingtin exon 1 (45Q) fused to mVenus/mCherry (mHttex1‐VC), after cleavage of MBP (domain or fragment)
chain: MATLEKLMKAFESLKSFQQQQQQQQQQQQQQQQQQQQQQQQQQQQQQQQQQQQQQQQQQQQQPPPPPPPPPPPQLPQPPPQAQPLLPQPQPPPPPPPPPPGPAVAEEPLHRP
For B1, the Kd was > 1000 µM.
